Experimental data from PMC12035558, “Structure of the Saccharolobus solfataricus GINS tetramer” (Acta Crystallographica Section F: Structural Biology …, 2025).

Molecular target: the molecule itself
Test: crystal structure; co-expressed and co-purified SsoGINS tetramer, 11 mg/ml in 20 mM Tris pH 8.3, 100 mM NaCl; hanging drop, 0.18 M triammonium citrate, 20%(w/v) PEG 3350, 291 K; space group P6_(3), 2.3 Å

B1: Saccharolobus solfataricus GINS51 (natural protein)
chain: MLDELVKKELSEEEITEIKLEEIIKYITLIKKSKTFVSSEIRKEELKFLSELAESLFELRLSKVLEGKVGKGFDEFIFDIFKILKQFYVDLLTGRYIIYNDKIYCIVQKPLIYNDHRVNEGDVLVLPMREALPLIIASYLTPYKIDIEEQL
notes: GINS51 of Saccharolobus solfataricus, gene amplified from genomic DNA (ATCC 35092D-5); Two copies stand in the (GINS23)2(GINS51)2 tetramer; A subdomain (alpha-helical) comes first, B subdomain (with beta-strands) second; also called SsoGINS51; Sso51
  binding result: binds
